Literature values as cited in publication PMC12250766.
Read-outs that look alike come from different tables or passages of the source. Each block holds one substance with its values, some of them ahead of it.

How the values were obtained:
[1] = biological target: PSGL-1 (Homo sapiens) (UniProt Q14242)
[2] = biological target: PSGL-1 model glycosulfopeptide (Homo sapiens) (UniProt Q14242)
[3] = biological target: PSGL-1 model glycosulfopeptide (Homo sapiens) (UniProt Q14242); remark: listed apart in the source
[4] = biological target: PSGL-1 model glycopeptide (Homo sapiens) (UniProt Q14242)
[5] = biological target: PSGL-1 (Homo sapiens) (UniProt Q14242); remark: listed apart in the source

Kd [1]: 5 µM
Substance: L-selectin (from UniProt P14151)

Kd [2]: 6 µM
Kd [3]: 0.65 µM
Kd [4]: 25 µM
Substance: P-selectin (from UniProt P16109)

Kd [5]: 15 µM
Substance: E-selectin (from UniProt P16581)
